According to publication PMC3437207, “G-quadruplex recognition activities of E. Coli MutS”:

T1: MutS (Escherichia coli, UniProt P23909 1-853)
T1 sequence: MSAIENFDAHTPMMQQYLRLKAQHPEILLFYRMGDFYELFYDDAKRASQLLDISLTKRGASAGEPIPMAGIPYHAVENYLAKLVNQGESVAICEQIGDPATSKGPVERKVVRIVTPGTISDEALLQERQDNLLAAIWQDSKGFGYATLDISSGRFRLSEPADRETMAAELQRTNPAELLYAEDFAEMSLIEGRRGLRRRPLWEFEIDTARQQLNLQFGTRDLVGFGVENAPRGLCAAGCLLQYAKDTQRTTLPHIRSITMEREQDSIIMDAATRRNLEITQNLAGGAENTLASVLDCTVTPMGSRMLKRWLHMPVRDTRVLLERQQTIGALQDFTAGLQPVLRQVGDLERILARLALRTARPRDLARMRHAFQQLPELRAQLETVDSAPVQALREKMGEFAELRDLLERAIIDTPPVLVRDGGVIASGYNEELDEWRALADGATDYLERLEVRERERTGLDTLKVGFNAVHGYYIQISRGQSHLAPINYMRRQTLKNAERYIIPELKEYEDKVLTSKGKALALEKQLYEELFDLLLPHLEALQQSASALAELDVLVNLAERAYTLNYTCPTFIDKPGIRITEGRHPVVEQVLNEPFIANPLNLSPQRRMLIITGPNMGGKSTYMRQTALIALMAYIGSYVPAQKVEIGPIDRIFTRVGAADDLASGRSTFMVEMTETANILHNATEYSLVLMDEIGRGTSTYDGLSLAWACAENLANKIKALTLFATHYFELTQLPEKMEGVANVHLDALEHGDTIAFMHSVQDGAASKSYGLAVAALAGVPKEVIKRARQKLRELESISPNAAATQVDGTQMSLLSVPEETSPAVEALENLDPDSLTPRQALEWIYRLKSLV

B1: Homoduplex (dsDNA)
DNA 1: CTAGCAAGCTTTCAATTCTAGAAATTCGGC
DNA 2: GCCGAATTTCTAGAATTGAAAGCTTGCTAG
B2: G-T mismatch heteroduplex (dsDNA)
DNA 1: CTAGCAAGCTTTCGATTCTAGAAATTCGGC
DNA 2: GCCGAATTTCTAGAATTGAAAGCTTGCTAG

What was measured:
MutS [1] = target: T1, MutS; test: EMSA; 38-150 nM protein; 20 mM Tris pH 7.6, 5 mM MgCl2, 1 mM DTT, 50 ug/ml BSA, 10 mM KCl, 200 fmol homoduplex competitor, 10-20 fmol labeled DNA in 20 ul; 6% native PAGE 0.5X TBE with; conditions: protein: recombinant; tags: His; chain copies: 2; label: 32P; blunt
MutS [2] = target: T1, MutS; test: EMSA; no nucleotide; 5 mM Mg2+; homoduplex competitor; 20 mM Tris pH 7.6, 5 mM MgCl2, 1 mM DTT, 50 ug/ml BSA, 10 mM KCl, 200 fmol homoduplex competitor, 10-20 fmol labeled DNA in 20 ul; 6% native PAGE 0.5X TBE with; conditions: protein: recombinant; tags: His; chain copies: 2; label: 5' 32P; blunt; single G-T mismatch at position 14 of strand 1

Row | Binder | binding result (MutS [1]) | binding signal (MutS [2])
1 | B1 | no binding | –
2 | B2 | – | > 2 fold Kd of MutS for TP-G4
